The chains are these.
B1: Mutant-1 human BCMA protein-mouse Fc (Fc fusion)
chain: MLQMAGQCSQNEYFDSGGHACIPCQLRCSSNTPPLTCQRYCNASVTNSVKGTNAGLGGLVDYKDDDDKTHTCPPCKCPAPNLLGGPSVFIFPPKIKDVLMISLSPIVTCVVVDVSEDDPDVQISWFVNNVEVHTAQTQTHREDYNSTLRVVSALPIQHQDWMSGKEFKCKVNNKDLPAPIERTISKPKGSVRAPQVYVLPPPEEEMTKKQVTLTCMVTDFMPEDIYVEWTNNGKTELNYKNTEPVLDSDGSYFMYSKLRVEKKNWVERNSYSCSVVHEGLHNHHTTKSFSRTPGK
notes: also called mutant-1 human BCMA-mouse Fc (17G-18G); mutant-1 BCMA protein
B2: Mutant-2 human BCMA protein-mouse Fc (Fc fusion)
chain: MLQMAGQCSQNEYFDSLLHACIPCQLRCSSNPPGTCQRYCNASVTNSVKGTNAGLGGLVDYKDDDDKTHTCPPCKCPAPNLLGGPSVFIFPPKIKDVLMISLSPIVTCVVVDVSEDDPDVQISWFVNNVEVHTAQTQTHREDYNSTLRVVSALPIQHQDWMSGKEFKCKVNNKDLPAPIERTISKPKGSVRAPQVYVLPPPEEEMTKKQVTLTCMVTDFMPEDIYVEWTNNGKTELNYKNTEPVLDSDGSYFMYSKLRVEKKNWVERNSYSCSVVHEGLHNHHTTKSFSRTPGK
notes: also called mutant-2 human BCMA-mouse Fc (del32-35G); mutant-2 BCMA protein

Experiment [1] deals with T1, human APRIL protein (R&D Systems, catalog #5860-AP-010/CF) (human, UniProt O75888 105-250, limits assumed).
T1 construct: Bought protein; also called human APRIL protein from R&D Systems; TNF13
T1 sequence (looked up): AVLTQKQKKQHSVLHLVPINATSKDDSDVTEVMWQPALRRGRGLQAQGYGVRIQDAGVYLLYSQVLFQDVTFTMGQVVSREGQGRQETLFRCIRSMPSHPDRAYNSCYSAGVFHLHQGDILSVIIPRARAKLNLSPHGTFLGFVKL
The experiment can be described thus: bio-layer interferometry, APRIL on AR2G sensor, BCMA-mouse Fc in solution. As for the experimental part: (§1) Bio-layer interferometry was also used to measure binding between APRIL protein, and wild type or mutant BCMA proteins. Human APRIL protein (R&D Systems, catalog #5860-AP-010/CF) was loaded onto an Ar2G sensor (OctetRET96e) and reacted with 2.5 μg/mL of one of three types of human BCMA proteins including: wild type human BCMA-mouse Fc (SEQ ID NO:5), mutant-1 human BCMA-mouse Fc (17G-18G; SEQ ID NO:6), or mutant-2 human BCMA-mouse Fc (de132-35G; SEQ ID NO:7).
In general terms: BLI is a label-free optical method that tracks binding on a fibre tip over time.

The target of experiment [2] is T1, human APRIL protein (R&D Systems, …). The experiment can be described thus: bio-layer interferometry, APRIL on AR2G sensor, BCMA-mouse Fc at 2.5 µg/mL. On the procedure: as §1
Experiment [3] addresses T2, human TACI/TNFRSF13B (CD267) His-tag, from Sino Biological (human, UniProt O14836 1-166, limits assumed).
T2 construct: Bought protein; not shown: His-tag
T2 sequence (looked up): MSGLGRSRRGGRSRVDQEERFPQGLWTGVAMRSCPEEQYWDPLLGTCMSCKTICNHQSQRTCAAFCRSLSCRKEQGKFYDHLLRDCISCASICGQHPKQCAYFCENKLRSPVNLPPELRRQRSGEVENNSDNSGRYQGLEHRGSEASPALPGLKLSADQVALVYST
The experiment can be described thus: bio-layer interferometry, antibody coupled to AR2G sensor, TACI in solution. On the procedure: (§2) Bio-layer interferometry was used to measure cross-binding between (1) two different anti-BCMA antibodies (BCA7-2C5 or BB C11D5) or a control isotype, and (2) various human antigens including TACI and BAFFR.
(§3) Immobilization of antibody was achieved through standard EDC-catalyzed amide bond formation to create a covalent bond between a reactive amine on the protein and the carboxy-terminated biosensor surface. Briefly, AR2G sensors (OctetRED96e from ForteBio) were activated by EDC-NHS for 6 minutes, then 5 ug/ml antibodies were loaded (BCA7-2C5 antibody, Bluebird C11D5 chimeric antibody, or a human IgG isotype antibody) in 10 mM acetate buffer pH 5.0 for 6 minutes, followed by quenching for 6 minutes with 1M ethanolamine pH 8.5. The 3 minutes baseline step removed any unbound antibody from the biosensor, followed by 1.5 minutes each for association of three analyte proteins TACI (human TACI/TNFRSF13B (CD267) His-tag, from Sino Biological, 1 ug/mL in PBS), BAFFR (human BAFFR/TNFRSF13C (CD268) Fc tag) from Sino Biological, 2 ug/mL in PBS), and human BCMA protein (in-house made with mouse Fc, 2 ug/mL in PBS).

The target in experiment [4] is T3, his-tagged mouse BCMA protein (ACROBiosystems, catalog # BCA-M52H3) (mouse, UniProt O88472 1-49).
T3 construct: Bought protein; not shown: his tag
T3 chain (looked up): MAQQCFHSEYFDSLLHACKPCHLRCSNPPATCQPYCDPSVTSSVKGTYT
Description: ELISA, his-tagged BCMA on Ni-NTA plate at 2 µg/mL, anti-human Fc HRP. As for the experimental part: Cross-reactivity of the anti-BCMA antibodies with his-tagged BCMA protein from human, cynomolgus or mouse, were analyzed by ELISA assay. The Ni-NTA plate was coated with his-tagged BCMA proteins (listed in Example 2 above) at 2 μg/mL, then reacted with an anti-BCMA antibody at 20 μg/mL, and reacted with anti-human Fc HRP (KPL Scientific, catalog #5220-0279) at 1:2500 dilution. […] Each set includes 5 test antigens or buffer, from left to right: negative control antigen, his-tagged mouse BCMA protein, his-tagged cynomolgus BCMA protein, his-tagged human BCMA protein, and Dulbecco's Phosphate-Buffered Saline.
(In an ELISA, binding on a coated surface is turned into a signal by an enzyme label.)

The target in experiment [5] is T4, his-tagged human BCMA protein (ACROBiosystems, catalog # BCA-H522y-100 ug) (human, UniProt Q02223 1-54).
T4 construct: limits of the bought construct are not otherwise stated; also called recombinant his-tagged human BCMA; not shown: his tag of the bought protein
T4 sequence: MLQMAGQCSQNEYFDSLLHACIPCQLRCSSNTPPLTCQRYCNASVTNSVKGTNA
The experiment can be described thus: ELISA, his-tagged BCMA on Ni-NTA plate at 2 µg/mL, antibody at 20 µg/mL.

Experiment [6] addresses T5, human BAFFR/TNFRSF13C (CD268) Fc tag, from Sino Biological (human, UniProt Q96RJ3 1-71, limits assumed).
T5 construct: Bought protein; not shown: Fc tag
T5 sequence (looked up): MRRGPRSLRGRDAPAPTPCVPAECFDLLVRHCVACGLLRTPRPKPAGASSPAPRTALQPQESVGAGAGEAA
Description: bio-layer interferometry, antibody coupled to AR2G sensor, BAFFR in solution. As for the experimental part:
as §2, §3

Experiment [7] deals with B2. The experiment can be described thus: bio-layer interferometry, antibody (100 nM) loaded on AR2G sensor, BCMA-mouse Fc in solution. On the procedure:
(§4) The results of the protein-protein binding assays described in Example 8 were used to design an epitope mapping assay using bio-layer interferometry. Various anti-BCMA antibodies (2C5, 2E1, 4C9, 6G8, Bluebird C11D5, GSK J6M0, or isotype control) (100 nM) were loaded onto AR2G sensors and reacted with buffer or one of three types of human BCMA proteins including: including: wild type human BCMA-mouse Fc (SEQ ID NO:5), mutant-1 human BCMA-mouse Fc (double mutation 17G-18G; SEQ ID NO:6), or mutant-2 human BCMA-mouse Fc (mutation del32-35G; SEQ ID NO:7).

For experiment [8], the target named is B1. The experiment is described as above. As for the experimental part: as §4
Experiment [9] concerns the target T6, Wild type human BCMA protein-mouse Fc (human).
T6 construct: also called wild type human BCMA-mouse Fc; wild type BCMA protein
T6 chain: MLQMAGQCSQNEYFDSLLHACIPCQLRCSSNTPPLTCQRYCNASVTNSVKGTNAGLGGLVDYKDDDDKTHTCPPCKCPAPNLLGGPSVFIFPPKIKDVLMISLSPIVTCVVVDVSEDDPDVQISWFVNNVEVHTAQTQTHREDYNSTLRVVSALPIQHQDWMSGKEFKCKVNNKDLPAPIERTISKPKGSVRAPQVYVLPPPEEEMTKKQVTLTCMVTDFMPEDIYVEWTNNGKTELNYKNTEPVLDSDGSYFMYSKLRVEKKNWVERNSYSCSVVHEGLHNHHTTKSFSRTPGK
The experiment is described as above. On the procedure:
as §4

Experiment [10] deals with T7, BCMA on MM1R cells (human, UniProt Q02223).
T7 construct: full length, on the surface of MM1R multiple myeloma cells; also called MM1R multiple myeloma cell line
T7 sequence (receptor, looked up): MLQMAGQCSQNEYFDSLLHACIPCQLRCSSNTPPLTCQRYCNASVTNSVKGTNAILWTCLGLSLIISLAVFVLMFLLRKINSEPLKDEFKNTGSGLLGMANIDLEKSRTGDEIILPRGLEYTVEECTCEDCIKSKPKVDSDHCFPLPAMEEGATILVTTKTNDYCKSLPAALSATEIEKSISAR
The experiment can be described thus: flow cytometry on MM1R cells, 5x serial dilution, FITC goat anti-human IgG F(ab')2, GeoMean BL1-H. The source says:
Flow cytometry was used to test antibody binding to multiple myeloma cell line MM1R, using various anti-BCMA antibodies (5× serial dilution) and 80,000 cells per well. The secondary antibody was FITC AffiniPure FAB2 fragment goat anti-human IgG (H+L) (from Jackson Immuno Research). […] A BL-1 detector (IntelliCyt iQue Screener Plus) which detects at 530 nm was used. The geometric mean is reported.
Background: In flow cytometry, cells or beads pass a laser one at a time.

Consider B1, for which the binding result in [1] was “no binding (tested: 2.5 µg/mL)”.

In the case of B2, the binding result in [2] is “binds”.

B3: Bluebird C11D5 antibody (BB anti-BCMA Ab) (antibody, V domains shown)
VH: QIQLVQSGPELKKPGETVKISCKASGYTFTDYSINWVKRAPGKGLKWMGWINTETREPAYAYDFRGRFAFSLETSASTAYLQINNLKYEDTATYFCALDYSYAMDYWGQGTTLTVSS
VL: DIVLTQSPASLAMSLGKRATISCRASESVSVIGAHLIHWYQQKPGQPPKLLIYLASNLETGVPARFSGSGSGTDFTLTIDPVEEDDVAIYSCLQSRIFPRTFGGGTKLEIK
notes: Comparator anti-BCMA antibody; also called BB C11D5; Bluebird antibody
As to B3, the binding result in experiment [3] is “no binding (tested: 1 ug/mL)”; in [4], “no binding (tested: 20 µg/mL)”; in experiment [5], “binds”; in experiment [6] it was “no binding (tested: 2 ug/mL)”; in experiment [7], “binds”; in experiment [8] it was “binds”. The binding result in [9] and in [10] was “binds” throughout.

These data come from US20210388097A1 (SORRENTO THERAPEUTICS, published 2021).
